Holding throughout (experiment): pull-down
The target in experiment [1] is T1, His6-Sec31 (aa 1–500) (yeast, UniProt P38968 1-500).
T1 sequence (looked up): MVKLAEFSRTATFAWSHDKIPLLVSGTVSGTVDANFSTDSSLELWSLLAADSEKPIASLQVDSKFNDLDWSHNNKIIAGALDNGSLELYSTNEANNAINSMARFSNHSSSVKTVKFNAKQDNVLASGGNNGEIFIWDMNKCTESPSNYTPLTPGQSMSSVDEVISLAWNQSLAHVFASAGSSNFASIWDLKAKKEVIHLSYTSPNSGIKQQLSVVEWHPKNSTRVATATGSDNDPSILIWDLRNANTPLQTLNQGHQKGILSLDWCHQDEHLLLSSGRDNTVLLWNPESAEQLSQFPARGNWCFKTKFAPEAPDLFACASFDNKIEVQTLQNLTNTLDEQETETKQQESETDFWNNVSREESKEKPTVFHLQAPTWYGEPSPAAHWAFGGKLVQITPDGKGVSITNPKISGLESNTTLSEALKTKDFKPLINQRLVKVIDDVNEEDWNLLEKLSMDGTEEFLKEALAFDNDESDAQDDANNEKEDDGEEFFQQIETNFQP

Experiment [2] addresses T2, GST-Sec23 (yeast, UniProt P15303 1-768).
T2 sequence (looked up): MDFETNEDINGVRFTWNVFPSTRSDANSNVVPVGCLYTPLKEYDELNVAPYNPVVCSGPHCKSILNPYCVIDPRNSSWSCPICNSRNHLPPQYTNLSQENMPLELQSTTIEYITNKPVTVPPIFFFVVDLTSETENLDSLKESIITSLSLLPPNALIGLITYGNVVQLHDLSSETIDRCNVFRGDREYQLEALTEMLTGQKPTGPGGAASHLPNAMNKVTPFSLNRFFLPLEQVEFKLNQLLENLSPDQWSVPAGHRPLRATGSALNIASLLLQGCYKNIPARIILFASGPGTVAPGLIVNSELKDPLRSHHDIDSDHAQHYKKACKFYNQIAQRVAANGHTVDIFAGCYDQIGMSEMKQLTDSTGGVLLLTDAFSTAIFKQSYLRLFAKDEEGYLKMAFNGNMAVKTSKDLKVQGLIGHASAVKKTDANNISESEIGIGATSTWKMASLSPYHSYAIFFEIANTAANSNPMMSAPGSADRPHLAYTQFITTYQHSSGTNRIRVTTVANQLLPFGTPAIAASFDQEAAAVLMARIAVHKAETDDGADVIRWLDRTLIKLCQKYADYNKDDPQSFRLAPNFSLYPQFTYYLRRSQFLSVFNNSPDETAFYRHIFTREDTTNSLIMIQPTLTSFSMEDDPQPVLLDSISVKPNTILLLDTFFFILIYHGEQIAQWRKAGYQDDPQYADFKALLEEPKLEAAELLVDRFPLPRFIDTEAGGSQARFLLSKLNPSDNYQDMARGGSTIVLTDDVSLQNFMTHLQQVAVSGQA

The target in experiment [3] is T3, GST-Sec24 (yeast, UniProt P40482 1-926).
T3 sequence (looked up): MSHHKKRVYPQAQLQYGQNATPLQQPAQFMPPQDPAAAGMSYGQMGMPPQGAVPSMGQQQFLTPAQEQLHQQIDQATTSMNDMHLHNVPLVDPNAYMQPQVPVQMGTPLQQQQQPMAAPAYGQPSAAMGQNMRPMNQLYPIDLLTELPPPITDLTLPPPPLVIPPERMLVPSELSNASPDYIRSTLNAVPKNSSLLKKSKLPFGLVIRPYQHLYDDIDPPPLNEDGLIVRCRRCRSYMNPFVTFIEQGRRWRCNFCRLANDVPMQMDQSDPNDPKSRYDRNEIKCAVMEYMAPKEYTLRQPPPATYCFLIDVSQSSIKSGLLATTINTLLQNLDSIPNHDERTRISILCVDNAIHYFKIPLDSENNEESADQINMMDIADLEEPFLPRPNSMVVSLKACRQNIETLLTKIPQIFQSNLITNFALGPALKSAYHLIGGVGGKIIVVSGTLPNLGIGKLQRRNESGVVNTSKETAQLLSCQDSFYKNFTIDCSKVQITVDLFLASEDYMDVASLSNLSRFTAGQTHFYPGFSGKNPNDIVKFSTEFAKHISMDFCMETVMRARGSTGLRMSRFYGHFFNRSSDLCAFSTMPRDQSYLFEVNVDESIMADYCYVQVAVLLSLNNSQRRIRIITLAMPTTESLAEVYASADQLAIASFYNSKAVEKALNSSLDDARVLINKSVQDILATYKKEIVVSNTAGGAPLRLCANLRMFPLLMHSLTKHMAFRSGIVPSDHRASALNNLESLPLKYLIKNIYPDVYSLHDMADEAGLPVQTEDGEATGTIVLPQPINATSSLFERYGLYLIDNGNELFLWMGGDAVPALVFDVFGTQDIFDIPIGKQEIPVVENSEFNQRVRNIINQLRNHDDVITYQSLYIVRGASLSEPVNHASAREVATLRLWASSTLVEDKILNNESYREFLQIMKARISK

B1: GST-auxilin-TPR domain (aa 363–561) (domain or fragment, yeast, UniProt Q06677 363-561, looked up)
chain: TIPISDIELSGYNEFKAKGTSLFKNGDYINSLQEYEKSLNTLPLNHPLRIIALSNIIASQLKIGEYSKSIENSSMALELFPSSKAKWKNKISNSDPERSFNDIWPKIMIRRAESFEHLESFKKALETYQELIKKNFFDDKIMQGKRRCQDFINPPPVKKSMPVKKKTTTTSPATKKQNLTASSSNSPISVDSTSEIKKR
As to B1, in experiment [1], the binding result is listed as “binds”.

B2: His6-auxilin (natural protein, yeast, UniProt Q06677 1-668, looked up)
chain: MSDPFAHLLTSLKNKDSASASKETTPQSSNSPSITGSAVADVARTDKSPNDSLHSISAPPLIPSPKVDFSAPPLVPTNSTTKSNTANNTPPSALANTDDDFNQLFGMGTVTTTDTIQKPDEDYYGSKEDHLYNGDDALVDEVKDMEIARLMSLGLSIEEATEFYENDVTYERYLEILKSKQKERNDLAIRKKESGIKMEKSGLSNIVGTDSNNLFSMATDFFNKGKKLVDQWTSFPPEANDRLNNYSKTHDKVEDYDLPQVNDSPNRILFEDNEVVENLPPADNPDQDLLTDFETKIDITKRTAPDVSHSSSPTSGILIEENSRRNEPLIEDSLLDFSEGNLTNSKSNEDSTLFNENSNTDSTIPISDIELSGYNEFKAKGTSLFKNGDYINSLQEYEKSLNTLPLNHPLRIIALSNIIASQLKIGEYSKSIENSSMALELFPSSKAKWKNKISNSDPERSFNDIWPKIMIRRAESFEHLESFKKALETYQELIKKNFFDDKIMQGKRRCQDFINPPPVKKSMPVKKKTTTTSPATKKQNLTASSSNSPISVDSTSEIKKRELENAKLALYDKVFEKISSWKDGKDDDIRHLLANLSSLLTWCNWKDVSMQDLVMPKRVKITYMKAVAKTHPDKIPESLSLENKMIAENIFSTLSIAWDKFKLQNDIN
As for B2, the binding result in experiment [2] and in experiment [3] was “binds” throughout.

Values taken from PMC4694752 (Molecular Biology of the Cell, 2016).
